For experiment [1], the target named is T1, CX3CR1 (Homo sapiens, UniProt P49238).
T1 construct: THP-1 cells (a human leukemia monocytic cell line) washed twice and suspended in serum-free RPMI 1640 media; endogenous in cells; host or cells: THP-1
T1 sequence (P49238 1-355): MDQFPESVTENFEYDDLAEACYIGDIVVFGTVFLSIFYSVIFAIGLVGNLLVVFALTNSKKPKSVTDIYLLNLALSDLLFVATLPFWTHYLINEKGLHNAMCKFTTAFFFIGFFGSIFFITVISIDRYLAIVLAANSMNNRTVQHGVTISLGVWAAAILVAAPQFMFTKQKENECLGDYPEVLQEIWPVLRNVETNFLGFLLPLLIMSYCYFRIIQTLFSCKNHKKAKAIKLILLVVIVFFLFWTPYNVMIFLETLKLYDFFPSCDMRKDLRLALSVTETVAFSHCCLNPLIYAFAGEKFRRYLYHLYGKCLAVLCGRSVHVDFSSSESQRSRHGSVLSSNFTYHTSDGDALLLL
The experiment in a line: Chemotaxis assay: RSV G modulation of CX3CR1, receptor-mediated chemotaxis of THP-1 cells (transwell). Type of experiment: cell-based. Particulars: for Chemotactic activity: RSV G (CCR) variants, chemotaxis assay of Example 4, duplicate assays, standard deviations in parentheses. On the procedure:
An in vitro assay for RSV G modulation of CX3CR1 measures receptor mediated chemotaxis of human monocyte THP-1 cells {Tripp, R. A. et al. Nature Immunology (2001) 2:732-738}. […]
In more detail, the assay was performed using a transwell insert plate with an 8 µm pore size. Approximately 2 million log-phase THP-1 cells (a human leukemia monocytic cell line) washed twice and suspended in serum-free RPMI 1640 media were added to the upper chamber of the insert plate. Negative control was serum-free media alone to which serum-free media containing 25 nM mAb was added to the lower chamber. As a positive control, media containing 10% FBS was added to the lower chamber. RSV G[ecto] or RSV G[161-197] samples were added to the lower chamber at a final concentration of 5 nM in serum-free media. For samples with RSV G[161-197] and mAbs, RSV G[161-197] was pre-incubated with 5-molar excess mAb for 20 min at room temperature, and then added to serum-free media in the lower chamber, for a final concentration of 5 nM RSV G[161-197] and 25 nM mAb. For samples with anti-CX3CR1 antibody, 2 μL 1 mg/mL anti-CX3CR1 rabbit polyclonal antibody (ThermoFisher Scientific Cat #PA5-19910) was incubated with THP-1 cells for 30 minutes in the upper chamber before being placed into the well. The assembled plates were incubated in a CO2 incubator at 37° C. for 5 h. Cells migrated to the lower chamber were counted, and the chemotactic indices were determined by comparing the fold-increase in cell migration toward the chemoattractant to cell migration toward serum-free media alone. Experiments were performed in at least four biological replicates.
Determination of structures of RSV G CCR protein in complex with the high affinity antibodies 2D10 and 3D3 shown in FIG. 4A-B provide a roadmap to design RSV G immunogens to disable CX3CR1 binding without disrupting the ability to generate high-affinity mAb epitopes. Specifically, six highly conserved amino acids have been identified whose side-chains make no molecular contacts with mAbs 3D3 and 2D10, so they can be substituted without impacting generation of high affinity mAbs similar to these mAbs. These residues are therefore candidates for substitution in order to interfere with binding to CX3CR1. Generally, providing an alteration in charge (charge switch) and/or a change in size or shape resulting in a steric hinderance (steric clash) would be expected to result in a negative impact on such binding. […] Six representative mutants have been tested for their impact on CX3CR1 function as measured by the chemotaxis assay described in Example 4. Table 4 summarizes the results of duplicate assays (with standard deviations) using the standard one letter abbreviations for the amino acid at the indicated residue.

The test system of experiment [2] is RSV. Particulars: mice, day 5 post-inoculation, vs isotype control; cited from earlier work.
The test system of experiment [3] is RSV. Conditions: in vitro; cited from earlier work.
In experiment [4] the target is RSV G protein (Human respiratory syncytial virus A, UniProt P03423). Conditions: read-out: affinity; mAb binding to RSV G protein; cited from earlier work.
Sequence of RSV G protein (P03423 whole entry): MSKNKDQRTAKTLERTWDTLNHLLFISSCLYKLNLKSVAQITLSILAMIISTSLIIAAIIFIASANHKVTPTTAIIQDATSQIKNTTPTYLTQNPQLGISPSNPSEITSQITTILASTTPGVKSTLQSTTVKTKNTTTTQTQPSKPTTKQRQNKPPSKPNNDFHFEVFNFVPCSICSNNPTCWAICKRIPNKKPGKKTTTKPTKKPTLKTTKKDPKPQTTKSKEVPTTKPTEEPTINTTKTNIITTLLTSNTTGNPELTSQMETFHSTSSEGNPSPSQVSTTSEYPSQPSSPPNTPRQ

Where no end group is shown, it is not given here.

Regarding “E166→K + K187 →E: RSV G (CCR) double variant, charge switch (NDFHFKVFNFVPCSICSNNPTCWAICERIPNKKPGKK; not fully specified (bridges); cysteine pairing not given here)”, the Chemotactic activity in experiment [1] is listed as 1.8 (0.1).

Regarding “E166→K: RSV G (CCR) variant, E166 to K, charge switch (NDFHFKVFNFVPCSICSNNPTCWAICKRIPNKKPGKK; not fully specified (bridges); cysteine pairing not given here)”, in experiment [1], the Chemotactic activity was 1.6 (0.7). For “H164→Y: RSV G (CCR) variant, H164 to Y, steric clash (NDFYFEVFNFVPCSICSNNPTCWAICKRIPNKKPGKK; not fully specified (bridges); cysteine pairing not given here)”, in experiment [1], the Chemotactic activity is given as 3.8 (0.4).

In the case of “K192→E + K193 →E: RSV G (CCR) double variant, charge switch (NDFHFEVFNFVPCSICSNNPTCWAICKRIPNEEPGKK; not fully specified (bridges); cysteine pairing not given here)”, the Chemotactic activity in experiment [1] is recorded as 2.5 (0.7). Still for that read-out and setting: for “S177→R: RSV G (CCR) variant, substitution of arginine for serine at position 177 (NDFHFEVFNFVPCSICRNNPTCWAICKRIPNKKPGKK; not fully specified (bridges); cysteine pairing not given here)” the value was 0.9 (0.2). Same read-out and setting: for “S177→W: RSV G (CCR) variant, S177 to W, steric clash (NDFHFEVFNFVPCSICWNNPTCWAICKRIPNKKPGKK; not fully specified (bridges); cysteine pairing not given here)” the value was 1.2 (0.4). For “Synagis: humanized mouse mAb against RSV F protein”, the “effect on total BAL cells” value in experiment [2] is on record as “did not reduce total BAL cells”. “Wild type RSV G (CCR) (NDFHFEVFNFVPCSICSNNPTCWAICKRIPNKKPGKK; not fully specified (bridges); cysteine pairing not given here)”: the Chemotactic activity in experiment [1] is 6.2 (0.7).

B1: 3D3: high affinity, broadly neutralizing human mAb binding RSV G protein CCR (antibody, V domains shown)
VH: EEQLVESGGGLVQPGRSLRLSCVGSGLRFEEHAMHWVRQAPGRGLEWVSGISWNSGSVGYADSVKGRFTTSRDNAKDILFLEMNTLRSEDTALYFCAIMVATTKNDFHYYKDVWGKGTTVTVSS
VL: QIVLTQSPATLSLSPGERATLSCRASQSVSNHLAWYQQKPGQAPRLLIYETSNRATGIPPRFSGSGSGTDFTLTISSLEPEDFAVYYCQQRNNWYTFGQGTKLEIK
As to B1, the viral neutralizing activity result in experiment [3] was “broad neutralizing activity”. For the same molecule, the “Blocking of RSV G[161-197]-induced chemotaxis by pre-incubation with mAb” value in experiment [1] (THP-1 cells, level comparable to anti-CX3CR1 polyclonal serum) was “blocked”. Moreover, the Kd in experiment [4] is 1.1 pM.

Values taken from patent US11773143B2, “Conformational epitopes in respiratory syncytial virus G protein central conserved region” (priority 2017, dated 2023).
